Experimental findings from paper PMC3683068 are described below.

Common to all, as to assay: two-hybrid; mammalian two-hybrid in HEK-293 cells; GAL4-ASK1 fragments in pBIND, VP16-Nef in pACT, pG5luc reporter; firefly luciferase/Renilla 48 hrs after transfection, fold over the pACT-pBIND negative control
For assay [1], the target named is ASK1 (1-1051 aa), GAL4 fusion (UniProt Q99683).
The target of assay [2] is ASK1 (1-904 aa), GAL4 fusion (UniProt Q99683).
In assay [3] the target is ASK1 (1-1051 aa), GAL4 fusion (UniProt Q99683). This is another data set of the same source.
The target in assay [4] is ASK1 (319-1051 aa), GAL4 fusion (UniProt Q99683).
Assay [5] has as its target ASK1 (1-904 aa), GAL4 fusion (UniProt Q99683). This is another data set of the same source.
Assay [6] deals with ASK1 (1-1051 aa), GAL4 fusion (UniProt Q99683). The source holds these as a separate data set.
Assay [7] addresses ASK1 (861-1051 aa), GAL4 fusion (UniProt Q99683).
In assay [8] the target is ASK1 (1-1051 aa), GAL4 fusion (UniProt Q99683). The source holds these as a separate data set.
In assay [9] the target is ASK1 (1-345 aa), GAL4 fusion (UniProt Q99683).

Read-outs that look alike come from different tables or passages of the source.

In turn, “HIV-1 Nef (57-174 aa), VP16 fusion (domain or fragment)” yielded a fold increase in luciferase/renilla over pACT-pBIND in assay [1] of 81.7 fold.

“HIV-1 Nef core domain (57-207 aa), VP16 fusion (domain or fragment)”: the fold increase in luciferase/renilla over pACT-pBIND came out at 153 fold in assay [1]; 8.75 fold in assay [2]; 157 fold in [3]; 2.83 fold in [4]; 9.15 fold in assay [5]; 162 fold in assay [6]. In addition, the values for the fold increase in luciferase/renilla over pACT-pBIND in assay [7], in assay [8] and in [9] were 2.93 fold, 156 fold and 2.05 fold, respectively.
